The text below walks through data of paper PMC10696552.

What is called Km is the concentration of substrate that gives half-maximal velocity. One may read the kcat/Km as the turnover number divided by the Michaelis constant.

Substrate in series [1]: N[C@@H](CS)C(=O)O
Put plainly: purified protein. Conditions: co-substrate L-His; 23 °C.

Substrate in series [2]: N[C@@H](Cc1c[nH]cn1)C(=O)O
Kind of series: purified protein. Conditions: co-substrate L-Cys.

Substrate in series [3]: C[N+](C)(C)[C@@H](Cc1cnc[nH]1)C(=O)[O-]
Kind of series: O2 consumption, NeoFoxy oxygen electrode. Conditions: co-substrate L-Cys, 23 °C. Format: biochemical, Hydrogenimonas thermophila.

Substrate in series [4]: N[C@@H](CS)C(=O)O
Kind of series: O2 consumption, NeoFoxy oxygen electrode. It is filed as biochemical, Hydrogenimonas thermophila. The following applies: co-substrate L-His, 23 °C.

Substrate in series [5]: N[C@@H](Cc1c[nH]cn1)C(=O)O
Kind of series: O2 consumption, NeoFoxy oxygen electrode. It is filed as biochemical, Hydrogenimonas thermophila. The following applies: co-substrate L-Cys, 23 °C.

Changes are numbered by the printed parent chain. In names and notes the source's numbering stands.

B1: OvoATh2 (Hydrogenimonas thermophila; Y399F) (protein)
chain: NKILLRPLLLKQKNPENLRQLIKKSFHRTFDTFESLFSMLRNDEAFYNRPEPLRHPHIFYFGHTAVFFINKLILSKIIDTRINAKMESIFAIGVDEMSWDDLNDDHYEWPSVEETRLYRNRVREVVDNLINTLPLELPITWDSPWWIILMGIEHERIHIETSSVLIRQTDISLVLPQPEWSKCNVSGKAPENELLFVPGGEIEIGKYKSDDYYGWDNEYGKHKTVIPDFKASKYLVSNGEFMEFVKDGGYENDLWWEEEGLAWRNFKKAKHPIFWIPFKNEYRYRTLTEIVDMPLDWPVDVNYHEAKAFCNWLSAKKGKPIRLPVEDEWYRLKEYCNVPDVSKWDEKAPANINLEHYASACPVTQFSFGNFYDVIGNVWQWTETPIYPFNGFKIHPIFDDFSTPTFDNRHNLIKGGSFISTGNEILASSRYAFRRHFFQHAGFRYVESSYKEKINSSGYESDTQVSQYCEFGWGDRYFGIENYPKRCAKICIEVTEGKPRKKALDVGCAIGRSTLELATSFESVTGLDFSARFIEMAERMRKDGSIRYTITTEGELVEYKEATLPKRLAKVVDRVEFWQADACNLKPIFTGYDLVFAGNLIDRLYDPAKFLNDIGKRINSGGMLILTSPYTWLEEFTPKQKWLGGFKQDGEPVKSIDGLKSHLKDSFKLIETRDIEFVIRETARKFQHSVAQMSIWEKI
As to B1, in series [1], the Michaelis constant (Km) came to 575.2 ± 22.0 µM, the kcat was 361.2 ± 5.9 min^–1 and the kcat/Km is 10500 M⁻¹ s⁻¹. In series [2] (23 °C), the Michaelis-Menten constant (Km) was 38.2 ± 2.6 µM and the kcat worked out at 361.2 ± 5.9 min^–1.

B2: OvoATh2 (Hydrogenimonas thermophila) (protein)
chain: B1 chain with F398Y
On to B2, for which, in series [3], the Michaelis-Menten constant (Km) was 61.9 ± 3.5 µM and the kcat is on record as 127.2 ± 1.5 min^–1. Also, in series [4], the Michaelis constant (Km) came out at 278.6 ± 9.0 µM, the kcat is 589.0 ± 3.5 min^–1 and the kcat/Km was found to be 35000 ± 1500 M⁻¹ s⁻¹. Moreover, in series [5], the Km worked out at 585.1 ± 28.0 µM and the kcat came to 589.0 ± 3.5 min^–1.

B3: OvoATh2 (Hydrogenimonas thermophila; Y61F) (protein)
chain: B1 chain with Y60F, F398Y
On to B3, for which, in series [2], the Michaelis-Menten constant (Km) amounted to 50.9 ± 2.5 µM and the kcat is reported as 23.4 ± 0.2 min^–1.

B4: OvoATh2 (Hydrogenimonas thermophila; Y399F/Y61F) (protein)
chain: B1 chain with Y60F
In the case of B4, in series [2], the Km is 31.3 ± 4.0 µM and the kcat was determined as 14.8 ± 0.3 min^–1.
